{"source": "paper PMC12311110", "about": "“Mapping of endosomal proximity proteomes reveals Retromer as a hub for RAB GTPase regulation” (Nature Communications, 2025)", "biological_target": "mVps29 (mouse (printed as mVps29), UniProt Q9QZ88 1-182)", "experiment": "crystal structure; hanging drop, 20 °C; 0.1 M Tris-HCl pH 8.5, 0.2 M MgCl2, 30% PEG4000; 3-fold molar excess of peptide over mVps29", "conditions": "both partners purified", "data": [{"binder": "AKVVQREDVETGLDPLSL (also called hDENND4C_(1189-1206); DENND4C PL motif-containing peptide; source: synthetic peptide)", "note": "[human DENND4C peptide 1189-1206]", "values": [{"measurement": "binding result", "value": "binds"}]}]}
